The term Kd denotes a measure of binding affinity in units of concentration.

Experimental findings from publication PMC2566858 (Nucleic Acids Research, 2008) are described below.

Holding throughout (assay): fluorescence anisotropy
On the technique in general: Polarisation of emitted light reports the rotation of a fluorescent probe.

The target of data set [1] is T1, rGyr_hel (reverse gyrase helicase-like domain) (Thermotoga maritima, UniProt O51934 59-541).
T1 sequence: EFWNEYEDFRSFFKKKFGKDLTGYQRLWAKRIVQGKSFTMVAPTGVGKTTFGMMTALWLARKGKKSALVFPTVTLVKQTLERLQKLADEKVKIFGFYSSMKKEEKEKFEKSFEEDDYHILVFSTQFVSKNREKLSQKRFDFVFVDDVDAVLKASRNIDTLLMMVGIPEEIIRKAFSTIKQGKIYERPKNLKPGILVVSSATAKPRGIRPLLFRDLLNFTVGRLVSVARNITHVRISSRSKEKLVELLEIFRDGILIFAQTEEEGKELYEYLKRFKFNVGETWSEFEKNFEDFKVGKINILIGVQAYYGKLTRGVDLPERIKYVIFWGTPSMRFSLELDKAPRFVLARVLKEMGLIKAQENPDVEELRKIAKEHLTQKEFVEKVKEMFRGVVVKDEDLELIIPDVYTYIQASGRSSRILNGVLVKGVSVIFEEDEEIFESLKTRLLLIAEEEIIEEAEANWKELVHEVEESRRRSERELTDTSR

Data set [2] deals with T2, rGyr_fl Y851F (full-length reverse gyrase) (Thermotoga maritima, UniProt O51934 1-1104, Y851F).
T2 sequence: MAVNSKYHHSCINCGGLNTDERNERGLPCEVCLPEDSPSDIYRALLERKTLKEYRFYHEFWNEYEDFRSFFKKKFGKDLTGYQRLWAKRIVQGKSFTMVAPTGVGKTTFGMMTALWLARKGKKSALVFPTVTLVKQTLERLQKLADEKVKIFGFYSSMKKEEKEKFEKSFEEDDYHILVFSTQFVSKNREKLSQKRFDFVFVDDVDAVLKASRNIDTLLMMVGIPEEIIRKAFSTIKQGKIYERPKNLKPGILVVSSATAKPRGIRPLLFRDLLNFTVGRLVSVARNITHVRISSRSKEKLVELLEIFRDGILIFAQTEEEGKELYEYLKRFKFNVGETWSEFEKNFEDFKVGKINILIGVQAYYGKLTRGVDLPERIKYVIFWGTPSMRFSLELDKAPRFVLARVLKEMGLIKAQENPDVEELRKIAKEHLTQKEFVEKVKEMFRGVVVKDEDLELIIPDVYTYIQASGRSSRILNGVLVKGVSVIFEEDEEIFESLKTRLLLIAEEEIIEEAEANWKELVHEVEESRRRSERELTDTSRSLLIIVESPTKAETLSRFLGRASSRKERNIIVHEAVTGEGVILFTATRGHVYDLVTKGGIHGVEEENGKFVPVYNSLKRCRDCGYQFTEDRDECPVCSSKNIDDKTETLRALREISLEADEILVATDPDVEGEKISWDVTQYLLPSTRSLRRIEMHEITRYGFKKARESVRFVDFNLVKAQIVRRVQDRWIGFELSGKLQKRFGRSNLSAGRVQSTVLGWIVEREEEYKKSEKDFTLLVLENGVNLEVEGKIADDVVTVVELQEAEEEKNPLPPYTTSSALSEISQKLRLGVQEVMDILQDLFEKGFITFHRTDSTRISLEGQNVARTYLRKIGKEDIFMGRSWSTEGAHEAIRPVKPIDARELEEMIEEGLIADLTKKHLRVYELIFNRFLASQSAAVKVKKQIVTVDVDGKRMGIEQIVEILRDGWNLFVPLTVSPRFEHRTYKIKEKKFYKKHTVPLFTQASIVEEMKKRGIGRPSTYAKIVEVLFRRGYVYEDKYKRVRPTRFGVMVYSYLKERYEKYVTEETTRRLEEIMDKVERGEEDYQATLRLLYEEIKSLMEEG

Data set [3] has as its target T2, rGyr_fl Y851F (full-length reverse …). The source holds these as a separate data set.
Data set [4] has as its target T1, rGyr_hel (reverse gyrase helicase-like …). This is another data set of the same source.
For data set [5] the target is unchanged. This is another data set of the same source.
Data set [6] has as its target T2, rGyr_fl Y851F (full-length reverse …). The source holds these as a separate data set.
The target is the same in data set [7]. This is another data set of the same source.
Data set [8] has the same target. The source holds these as a separate data set.

Read-outs that look alike come from different tables or passages of the source.

B1: 60-base ssDNA (ssDNA)
DNA: AAGCCAAGCTTCTAGAGTCAGCCCGTGATATTCATTACTTCTTATCCTAGGATCCCCGTT
With B1, the Kd in data set [1] came to 280 ± 10 nM; in data set [2], 45 ± 2 nM; in data set [3], 49 ± 12 nM; in data set [4] it was 600 ± 70 nM; in data set [5], 920 ± 210 nM; in data set [6] it was 41 ± 1 nM. Further, the Kd in data set [7] was 36 ± 1 nM; in data set [8] it was 330 ± 20 nM.
